Laboratory results reported in patent publication US10370433B2, “Compositions and methods for diagnosis and treatment of cancer” (BIONTECH AG, priority 2015, dated 2019).
Where two headings read alike, the source gives them in different places.

What was measured:
in vivo = conditions: BALB/c nu/nu, mouse, iv, total radioactivity; for tissue uptake at 1 h / tissue uptake at 2 h / tissue uptake at 4 h / tissue uptake at 6 h / tissue uptake at 24 h / tissue uptake at 0.5 h: Mean % ID/g; for tissue uptake at 0.5 h: 30 min
[1] = human, in vivo, iv

CC[C@H](C)[C@@H]1NC(=O)[C@@H]2CSSC[C@H](NC(=O)[C@H](C)NC(=O)CNC(=O)[C@H](CO)NC(=O)CNC(=O)CON=CC(=O)NCCCC[C@H](NC(=O)[C@H](CO)NC(=O)CNC(=O)[C@H](CO)NC(=O)CNC(=O)[C@H](CCCCNC(=O)C=NOCC(=O)NCC(=O)N[C@@H](CO)C(=O)NCC(=O)N[C@@H](C)C(=O)N[C@H]3CSSC[C@@H]4NC(=O)[C@H](CCCNC(=N)N)NC(=O)CNC(=O)[C@@H]5CCCN5C(=O)[C@@H]5CSSC[C@@H](C(=O)NCC(=O)O)NC(=O)[C@H](Cc6ccc(O)cc6)NC(=O)CNC(=O)[C@H](CC(N)=O)NC(=O)CNC(=O)[C@H](CCCNC(=N)N)NC(=O)[C@H](CSSC[C@H](NC(=O)[C@H](CC(=O)O)NC(=O)[C@@H]6CCCN6C(=O)CNC(=O)[C@H](CCCNC(=N)N)NC(=O)CNC(=O)[C@@H]6CCCN6C(=O)[C@H]([C@@H](C)O)NC(=O)[C@H](Cc6c[nH]c7ccccc67)NC(=O)[C@H](CC(N)=O)NC(=O)[C@H](CO)NC(=O)[C@H](Cc6ccc(O)cc6)NC(=O)[C@@H]6CCCN6C3=O)C(=O)N[C@@H](CCCNC(=N)N)C(=O)N[C@@H](CCCNC(=N)N)C(=O)N[C@@H](CC(=O)O)C(=O)N[C@@H](CO)C(=O)N[C@@H](CC(=O)O)C(=O)N5)NC(=O)[C@H]([C@@H](C)CC)NC4=O)NC(=O)[C@H](CO)NC(=O)CNC(=O)[C@H](CO)NC(=O)CNC(=O)[C@H](CCCCNC(=O)C=NOCC(=O)NCC(=O)N[C@@H](CO)C(=O)NCC(=O)N[C@@H](C)C(=O)N[C@H]3CSSC[C@@H]4NC(=O)[C@H](CCCNC(=N)N)NC(=O)CNC(=O)[C@@H]5CCCN5C(=O)[C@@H]5CSSC[C@@H](C(=O)NCC(=O)O)NC(=O)[C@H](Cc6ccc(O)cc6)NC(=O)CNC(=O)[C@H](CC(N)=O)NC(=O)CNC(=O)[C@H](CCCNC(=N)N)NC(=O)[C@H](CSSC[C@H](NC(=O)[C@H](CC(=O)O)NC(=O)[C@@H]6CCCN6C(=O)CNC(=O)[C@H](CCCNC(=N)N)NC(=O)CNC(=O)[C@@H]6CCCN6C(=O)[C@H]([C@@H](C)O)NC(=O)[C@H](Cc6c[nH]c7ccccc67)NC(=O)[C@H](CC(N)=O)NC(=O)[C@H](CO)NC(=O)[C@H](Cc6ccc(O)cc6)NC(=O)[C@@H]6CCCN6C3=O)C(=O)N[C@@H](CCCNC(=N)N)C(=O)N[C@@H](CCCNC(=N)N)C(=O)N[C@@H](CC(=O)O)C(=O)N[C@@H](CO)C(=O)N[C@@H](CC(=O)O)C(=O)N5)NC(=O)[C@H]([C@@H](C)CC)NC4=O)NC(=O)[C@H](CO)NC(=O)CNC(=O)[C@H](CO)NC(=O)CNC(=O)CN3CCN(CC(=O)O)CCN(CC(=O)O)CCN(CC(=O)O)CC3)C(=O)O)C(=O)N3CCC[C@H]3C(=O)N[C@@H](Cc3ccc(O)cc3)C(=O)N[C@@H](CO)C(=O)N[C@@H](CC(N)=O)C(=O)N[C@@H](Cc3c[nH]c4ccccc34)C(=O)N[C@@H]([C@@H](C)O)C(=O)N3CCC[C@H]3C(=O)NCC(=O)N[C@@H](CCCNC(=N)N)C(=O)NCC(=O)N3CCC[C@H]3C(=O)N[C@@H](CC(=O)O)C(=O)N[C@H]3CSSC[C@H](NC1=O)C(=O)N[C@@H](CCCNC(=N)N)C(=O)NCC(=O)N[C@@H](CC(N)=O)C(=O)NCC(=O)N[C@@H](Cc1ccc(O)cc1)C(=O)N[C@H](C(=O)NCC(=O)O)CSSC[C@H](NC(=O)[C@H](CC(=O)O)NC(=O)[C@H](CO)NC(=O)[C@H](CC(=O)O)NC(=O)[C@H](CCCNC(=N)N)NC(=O)[C@H](CCCNC(=N)N)NC3=O)C(=O)N1CCC[C@H]1C(=O)NCC(=O)N[C@@H](CCCNC(=N)N)C(=O)N2 (single isomer, unassigned) [^177Lu-(MC-FA-012)3, metal not drawn]
tissue uptake at 1 h (in vivo): 0.67 %ID/g | tissue uptake at 2 h (in vivo): 0.607 %ID/g | tissue uptake at 4 h (in vivo): 0.451 %ID/g | tissue uptake at 6 h (in vivo): 0.648 %ID/g | tissue uptake at 24 h (in vivo): 0.189 %ID/g | tissue uptake at 0.5 h (in vivo; Blood): 1.35 %ID/g | tissue uptake at 1 h (in vivo; Blood): 0.36 %ID/g | tissue uptake at 2 h (in vivo; Blood): 0.135 %ID/g | tissue uptake at 4 h (in vivo; Blood): 0.042 %ID/g | tissue uptake at 6 h (in vivo; Blood): 0.0374 %ID/g | tissue uptake at 24 h (in vivo; Blood): 0.0429 %ID/g | tissue uptake at 0.5 h (in vivo; Heart): 0.615 %ID/g | tissue uptake at 1 h (in vivo; Heart): 0.187 %ID/g | tissue uptake at 2 h (in vivo; Heart): 0.128 %ID/g | tissue uptake at 4 h (in vivo; Heart): 0.102 %ID/g | tissue uptake at 6 h (in vivo; Heart): 0.0876 %ID/g | tissue uptake at 24 h (in vivo; Heart): 0.0641 %ID/g | tissue uptake at 2 h (in vivo; Injection site): 2.87 %ID/g | tissue uptake at 4 h (in vivo; Injection site): 2.61 %ID/g | tissue uptake at 6 h (in vivo; Injection site): 1.57 %ID/g | tissue uptake at 24 h (in vivo; Injection site): 0.983 %ID/g | tissue uptake at 0.5 h (in vivo; Liver): 0.668 %ID/g | tissue uptake at 1 h (in vivo; Liver): 0.398 %ID/g | tissue uptake at 2 h (in vivo; Liver): 0.44 %ID/g | tissue uptake at 4 h (in vivo; Liver): 0.41 %ID/g | tissue uptake at 6 h (in vivo; Liver): 0.431 %ID/g | tissue uptake at 24 h (in vivo; Liver): 0.363 %ID/g | tissue uptake (in vivo; signal in kidney): 287 %ID/g | acute nephrotoxicity [1]: no acute nephrotoxicity | Mean % ID/g, Brain (CT26-huSeprase tumors; 30 min): 0.6895 % ID/g | Mean % ID/g, Injection site (CT26-huSeprase tumors; 30 min): 4.2434 % ID/g | Mean % ID/g, Intestine (CT26-huSeprase tumors; 30 min): 0.7435 % ID/g | Mean % ID/g, Kidneys (CT26-huSeprase tumors; 30 min): 286.7812 % ID/g | Mean % ID/g, Muscle (CT26-huSeprase tumors; 30 min): 0.0589 % ID/g | Mean % ID/g, Spleen (CT26-huSeprase tumors; 30 min): 0.9253 % ID/g | Mean % ID/g, Tumor (CT26-huSeprase tumors; 30 min): 9.8546 % ID/g | Mean % ID/g, Brain (CT26-huSeprase tumors; 1 h): 0.2284 % ID/g | Mean % ID/g, Injection site (CT26-huSeprase tumors; 1 h): 15.2418 % ID/g | Mean % ID/g, Intestine (CT26-huSeprase tumors; 1 h): 0.5079 % ID/g | Mean % ID/g, Muscle (CT26-huSeprase tumors; 1 h): 0.0423 % ID/g | Mean % ID/g, Spleen (CT26-huSeprase tumors; 1 h): 0.5493 % ID/g | Mean % ID/g, Tumor (CT26-huSeprase tumors; 1 h): 6.7929 % ID/g | Mean % ID/g, Brain (CT26-huSeprase tumors; 2 h): 0.5818 % ID/g | Mean % ID/g, Intestine (CT26-huSeprase tumors; 2 h): 1.0902 % ID/g | Mean % ID/g, Kidneys (CT26-huSeprase tumors; 2 h): 272.3888 % ID/g | Mean % ID/g, Muscle (CT26-huSeprase tumors; 2 h): 0.0317 % ID/g | Mean % ID/g, Spleen (CT26-huSeprase tumors; 2 h): 0.6561 % ID/g | Mean % ID/g, Tumor (CT26-huSeprase tumors; 2 h): 8.1504 % ID/g | Mean % ID/g, Brain (CT26-huSeprase tumors; 4 h): 0.3159 % ID/g | Mean % ID/g, Intestine (CT26-huSeprase tumors; 4 h): 0.2913 % ID/g | Mean % ID/g, Kidneys (CT26-huSeprase tumors; 4 h): 245.1877 % ID/g | Mean % ID/g, Muscle (CT26-huSeprase tumors; 4 h): 0.0241 % ID/g | Mean % ID/g, Spleen (CT26-huSeprase tumors; 4 h): 0.5931 % ID/g | Mean % ID/g, Tumor (CT26-huSeprase tumors; 4 h): 7.7667 % ID/g | Mean % ID/g, Brain (CT26-huSeprase tumors; 6 h): 0.2159 % ID/g | Mean % ID/g, Intestine (CT26-huSeprase tumors; 6 h): 0.9309 % ID/g | Mean % ID/g, Kidneys (CT26-huSeprase tumors; 6 h): 259.4467 % ID/g | Mean % ID/g, Muscle (CT26-huSeprase tumors; 6 h): 0.1259 % ID/g | Mean % ID/g, Spleen (CT26-huSeprase tumors; 6 h): 0.6287 % ID/g | Mean % ID/g, Tumor (CT26-huSeprase tumors; 6 h): 7.8057 % ID/g | Mean % ID/g, Brain (CT26-huSeprase tumors; 24 h): 0.2151 % ID/g | Mean % ID/g, Intestine (CT26-huSeprase tumors; 24 h): 0.3347 % ID/g | Mean % ID/g, Kidneys (CT26-huSeprase tumors; 24 h): 213.4107 % ID/g | Mean % ID/g, Muscle (CT26-huSeprase tumors; 24 h): 0.0253 % ID/g | Mean % ID/g, Spleen (CT26-huSeprase tumors; 24 h): 0.4561 % ID/g | Mean % ID/g, Tumor (CT26-huSeprase tumors; 24 h): 5.8505 % ID/g | Mean % ID/g, Kidneys (CT26-huSeprase tumors; mouse, in vivo): 222.3177 % ID/g | signal in tumor (CT26-huSeprase tumors; mouse, in vivo): 9.9-5.9 | tumor targeting (CT26-huSeprase tumors; mouse, in vivo): specific tumor targeting
